Measurements published in US20250289897A1 (Eli Lilly, published 2025).

T1: human LEPR, full length, on HEK293-STAT3Luc-hLepR1 cells (Homo sapiens, UniProt P48357 22-1165)
T1 sequence: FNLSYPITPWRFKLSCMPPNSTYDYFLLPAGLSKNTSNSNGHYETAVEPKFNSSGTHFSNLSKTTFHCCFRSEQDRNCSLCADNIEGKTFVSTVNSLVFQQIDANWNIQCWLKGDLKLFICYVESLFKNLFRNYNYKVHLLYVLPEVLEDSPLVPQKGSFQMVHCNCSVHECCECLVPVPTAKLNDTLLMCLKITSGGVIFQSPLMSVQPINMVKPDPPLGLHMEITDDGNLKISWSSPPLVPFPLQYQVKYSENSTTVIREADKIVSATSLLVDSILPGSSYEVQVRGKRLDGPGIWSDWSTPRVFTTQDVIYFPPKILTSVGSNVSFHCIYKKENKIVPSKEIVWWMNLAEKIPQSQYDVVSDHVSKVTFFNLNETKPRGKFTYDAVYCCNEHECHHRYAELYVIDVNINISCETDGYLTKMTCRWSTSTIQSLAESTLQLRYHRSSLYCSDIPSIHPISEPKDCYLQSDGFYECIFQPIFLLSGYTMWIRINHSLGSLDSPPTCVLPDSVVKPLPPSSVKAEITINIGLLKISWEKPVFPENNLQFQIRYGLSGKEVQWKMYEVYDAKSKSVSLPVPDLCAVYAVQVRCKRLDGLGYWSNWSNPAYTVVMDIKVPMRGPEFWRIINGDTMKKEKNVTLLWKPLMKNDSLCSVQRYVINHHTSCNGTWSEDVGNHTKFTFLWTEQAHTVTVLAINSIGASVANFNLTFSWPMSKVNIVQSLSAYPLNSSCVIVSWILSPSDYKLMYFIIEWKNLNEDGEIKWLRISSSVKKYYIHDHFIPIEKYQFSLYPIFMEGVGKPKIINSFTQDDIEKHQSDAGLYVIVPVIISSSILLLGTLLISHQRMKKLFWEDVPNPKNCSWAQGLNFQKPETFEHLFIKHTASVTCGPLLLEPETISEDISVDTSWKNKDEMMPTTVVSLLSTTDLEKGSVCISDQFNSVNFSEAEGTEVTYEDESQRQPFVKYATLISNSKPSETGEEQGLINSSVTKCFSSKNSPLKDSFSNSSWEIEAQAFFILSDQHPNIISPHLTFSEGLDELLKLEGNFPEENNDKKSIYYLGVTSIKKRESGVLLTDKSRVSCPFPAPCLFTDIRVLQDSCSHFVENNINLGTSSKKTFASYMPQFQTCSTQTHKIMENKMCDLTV

T2: Rat LEPR-ECD-His (rat, UniProt Q62959 22-839)
T2 sequence: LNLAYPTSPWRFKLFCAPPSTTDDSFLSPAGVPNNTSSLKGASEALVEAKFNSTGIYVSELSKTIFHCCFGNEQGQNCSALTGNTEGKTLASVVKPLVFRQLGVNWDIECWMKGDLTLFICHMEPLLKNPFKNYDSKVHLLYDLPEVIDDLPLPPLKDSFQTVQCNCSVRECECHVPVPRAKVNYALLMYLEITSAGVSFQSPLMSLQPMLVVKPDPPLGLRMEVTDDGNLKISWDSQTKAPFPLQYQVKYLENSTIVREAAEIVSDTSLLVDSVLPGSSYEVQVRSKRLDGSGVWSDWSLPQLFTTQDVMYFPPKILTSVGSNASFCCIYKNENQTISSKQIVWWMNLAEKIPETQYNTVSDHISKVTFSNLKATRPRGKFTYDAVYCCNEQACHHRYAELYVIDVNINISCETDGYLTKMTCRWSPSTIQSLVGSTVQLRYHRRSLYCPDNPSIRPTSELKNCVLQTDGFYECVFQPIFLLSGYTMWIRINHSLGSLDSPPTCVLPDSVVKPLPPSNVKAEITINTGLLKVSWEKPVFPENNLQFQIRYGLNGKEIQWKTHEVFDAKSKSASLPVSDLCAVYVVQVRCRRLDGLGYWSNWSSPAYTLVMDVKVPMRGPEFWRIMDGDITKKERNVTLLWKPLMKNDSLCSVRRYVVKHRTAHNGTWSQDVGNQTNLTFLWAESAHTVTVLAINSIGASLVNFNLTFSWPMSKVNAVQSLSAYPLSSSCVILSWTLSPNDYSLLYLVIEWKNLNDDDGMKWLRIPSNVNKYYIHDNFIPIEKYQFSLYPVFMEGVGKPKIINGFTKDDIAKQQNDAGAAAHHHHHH


What was measured:
[1] = biological target: T1, human LEPR, full length, on …; assay: cell-based or functional assay
[2] = biological target: T3, Recombinant LEPR extracellular domain fused to hIgG1-Fc (human LEPR ECD-TEV-Fc) (human); assay: ELISA, plate coated with human LEPR ECD (SEQ ID NO:30) at 2 ug/mL, antibody titrated 1:3 from 50 ug/mL, goat anti-human kappa AP detection, OD560
T3 construct: The entry holds ECD, TEV site, human IgG1 Fc and a His tag in one chain; also called LEPR-Fc; hLEPR-TEV-hIgG1Fc

[3] = biological target: T1, human LEPR, full length, on …; assay: cell-based or functional assay; remark: listed apart in the source
Rat LEPR-ECD-His = biological target: T2, Rat LEPR-ECD-His; assay: SPR (Biacore T200), antibody captured on Protein A/G chip, n = 1
[4] = biological target: T1, human LEPR, full length, on …; assay: flow cytometry on live HEK293-STAT3Luc-hLepR1 cells, AF647 anti-human IgG; average of 4 runs
[5] = biological target: T4, cynomolgus monkey LEPR, full length, on HEK293-STAT3Luc-cmLepR2 cells (Macaca fascicularis); assay: flow cytometry on live HEK293-STAT3Luc-cmLepR2 cells, AF647 anti-human IgG; average of 4 runs, SD 0.7
T4 construct: whole, on cells; also called cyno-LEPR; Macaca fascicularis LEPR

[6] = biological target: T4, cynomolgus monkey LEPR, full length, on …; assay: flow cytometry on live HEK293-STAT3Luc-cmLepR2 cells, AF647 anti-human IgG; average of 4 runs
[7] = biological target: T4, cynomolgus monkey LEPR, full length, on …; assay: flow cytometry on live HEK293-STAT3Luc-cmLepR2 cells, AF647 anti-human IgG; average of 4 runs, SD 1.0

Binder | EC50 (nM), pSTAT3 AlphaLISA, after pre-exposure to 30 nM Antibody A and wash-out [1] [nM] | EC50 (nM), pSTAT3 AlphaLISA, vehicle-exposed cells [1] [nM] | Top (%), pSTAT3 AlphaLISA against 30 nM leptin, vehicle-exposed cells [1] [%] | EC50 (read off the curve) [2] [µg/mL] | Maximum RLU, pERK1/2 AlphaLISA (baseline 29762.5) [3] [RLU] | binding result (Rat LEPR-ECD-His) | Bottom (gMFI) [4] [gMFI] | Top (gMFI) [4] [gMFI] | EC50 [5] [nM] | Bottom (gMFI) [6] [gMFI] | Top (gMFI) [6] [gMFI] | EC50 (nM), pSTAT3 AlphaLISA, after pre-exposure to 30 nM Antibody B and wash-out [1] [nM] | EC50 [7] [nM] | EC50 (nM), pSTAT3 AlphaLISA, after pre-exposure to 30 nM Antibody C and wash-out [1] [nM]
Antibody A (antibody, human IgG1, kappa, L234A L235A, IgG1 mAb) heavy: EVQLLESGGGLVQPGGSLRLSCAASGFTFSSFAMSWVRQAPGKGLEWVSAISGSGGSTYSADSVRGRFTISRDNSKNTLYLQMNSLRAEDTAVYYCAKDQGDWDFLFDYWGQGTLVTVSSASTKGPSVFPLAPSSKSTSGGTAALGCLVKDYFPEPVTVSWNSGALTSGVHTFPAVLQSSGLYSLSSVVTVPSSSLGTQTYICNVNHKPSNTKVDKRVEPKSCDKTHTCPPCPAPEAAGGPSVFLFPPKPKDTLYITREPEVTCVVVSVSHEDPEVKFNWYVDGVEVHNAKTKPREEQYNSTYRVVSVLTVLHQDWLNGKEYKCKVSNKALPAPIEKTISKAKGQPREPQVYTLPPSREEMTKNQVSLTCLVKGFYPSDIAVEWESNGQPENNYKTTPPVLDSDGSFFLYSKLTVDKSRWQQGNVFSCSVMHEALHNHYTQKSLSLSPGK light: DIQMTQSPSFLSASVGDRVTITCRASQGISSSLAWYQQKPGKAPKLLIYTASTLQSGVPSRFSGSGSGTEFTLTISSLQPEDFATYYCQQLIYYPFTFGQGTKVEIKRTVAAPSVFIFPPSDEQLKSGTASVVCLLNNFYPREAKVQWKVDNALQSGNSQESVTEQDSKDSTYSLSSTLTLSKADYEKHKVYACEVTHQGLSSPVTKSFNRGEC | 0.36 | 0.331 | 68.9 | ~0.06 | 86000 | no binding (tested: LEPR-ECD tested up to 1000 nM) | 131 | 2460 | 0.74 | 254 | 12100 |  |  | 
Antibody B (antibody, human IgG1, kappa, L234A L235A, V domains shown) VH: EVQLLESGGGLVQPGGSLRLSCAASGFTFSSFAMSWVRQAPGKGLEWVSAISGSGGSTYSADSVRGRFTISRDNSKNTLYLQMNSLRAEDTAVYYCAKDQGDWDFLFDYWGQGTLVTVSS VL: DIQMTQSPSFLSASVGDRVTITCRVSQGISSSLAWYQQKPGKAPKLLIYTASTLQSGVPSRFSGSGSGTEFTLTISSLQPEDFATYYCQQLNYYPFTFGQGTKVEIKR |  | 0.986 | 70.5 | ~0.08 | 83400 | no binding (tested: LEPR-ECD tested up to 1000 nM) | 123 | 2940 |  | 243 | 12100 | 1.06 | 1.11 | 
Antibody C (antibody, human IgG1, kappa, L234A L235A, V domains shown) VH: EVQLLESGGGLVQPGGSLRLSCAASGFTFSSFAMSWVRQAPGKGLEWVSAISGSGGSTYSADSVRGRFTISRDNSKNTLYLQMNSLRAEDTAVYYCAKDQGDWDFLFDYWGQGTLVTVSS VL: DIQMTQSPSFLSASVGDRVTITCRASQGISSSLAWYQQKPGKAPKLLIYTASTLQSGVPSRFSGSGSGTEFTLTISSLQPEDFATYYCQQLNYYPFSFGQGTKVEIKR |  | 1.04 | 71.7 | ~0.07 | 87000 | no binding (tested: LEPR-ECD tested up to 1000 nM) | 144 | 1850 |  | 214 | 10800 |  |  | 1.14
